This note sets out measurements from US20250339501A1, “COMPOSITIONS AND METHODS FOR TREATING METABOLIC DISEASE” (The Regents of the University of California, priority 2021, published 2025).

For one test, the system named is C2C12 myotubes. Description: Dj1 release from muscle cells into culture medium. It counts as cell-based, mouse. Conditions: for protein level of Dj1 in the media: C2C12 myotubes with or without CCCP, Tg; for muscle cell release of Dj1: in vitro (C2C12 myotubes) and ex vivo muscle. On the procedure:
Seeded cells were cultured in 6-well plates for 24 hours prior to transfection. Transfections were performed using Lipofectamine 2000 and PLUS reagent according to manufacturer instructions (Invitrogen, Carlsbad, CA). Human HepG2 cells were cultured in DMEM/low media containing 10% fetal bovine serum with penicillin/streptomycin. Mouse AML12 cells were maintained in DMEM/F12, ITS supplement (Gibco, USA), 40 ng/ml dexamethasone, and 10% fetal bovine serum with penicillin/streptomycin.
An adenovirus encoding mouse Dj1 was generated using the ViraPower Adenoviral Expression System (Invitrogen) according to manufacturer instructions. […] Entry clones were obtained by recombination of the purified DNA fragment with the pDONR221 vector using Gateway BP clonase II. Mouse Dj1 insert was transferred from the entry clones into the pAd/CMV/V5-DEST vector (Invitrogen) using the Gateway LR Clonase II enzyme mix. The recombinant adenoviral purified plasmid was used to generate adenoviral particles according to the manufacturer's instructions (Invitrogen). Adenoviral titer was determined using the AdenoX Rapid Titer Kit (Clontech).
(§1) Mouse tissue and cell samples were pulverized in liquid nitrogen and homogenized in RIPA lysis buffer containing complete EDTA-Free protease (Roche) and Phosphatase Inhibitor Cocktail 2 (Sigma-Aldrich, St. Louis, MO). All lysates were centrifuged, clarified, and resolved by SDS-PAGE. […] Densitometric analyses were performed using BioRad Quantity One image software (Bio-Rad, Hercules, CA).
(§2) Mouse serum Dj1 and CK were measured by mouse Park7/DJ-1 DuoSet ELISA (DY8136, R&D systems) and mouse CKMB/Creatine Kinase MB ELISA Kit (LS-F5745, LSBio) respectively. Mouse Serum AST and ALT were measured by AST activity assay kit (Sigma, MAK055) and ALT activity assay kit (Sigma, MAK052) respectively.
Strenuous exercise increases the endoplasmic reticulum (ER) stress, which at an excessive level can lead to muscle damage (12). […] To determine the mechanisms that drive skeletal muscle releases of Dj1, ER stress markers were examined in skeletal muscles of the three different mouse models described above. […] To further validate muscle cells release of Dj1, in vitro studies were assessed.
(§3) Extracellular vesicles are cell-derived membranous structures including exosomes and microvesicles bodies, which are enriched with proteins, lipids, DNA, and RNA (14). To examine whether Dj1 is released through the extracellular vesicle system, Dj1 levels were determined in the culture media of C2C12 myotubes that were treated with or without CCCP, Tg, exosome generation inhibitor GW4869, or exocytosis inhibitor Exo1. […] To visualize the release of Dj1 from muscle cells, time-lapse imaging was performed on C2C12 myocytes transfected with Dj1-GFP. […] To further determine which types of extracellular vesicles were enriched with Dj1, microvesicle bodies (MVBs) and exosomes from C2C12 culture media and CTX-treated mouse plasma were separated by differential centrifugation.

The test system of the next test is C2C12 myocytes. The experiment in a line: Time-lapse imaging of Dj1-GFP transfected C2C12 myocytes. It counts as cell-based, mouse. On the procedure:
Before image analysis, raw .czi files were automatically processed into deconvoluted Airyscan images using Zen software. Time-lapse images were acquired at approximately 1 frame/second.
as §3

In the next test the test system is C57BL/6J mice. Description: Plasma Dj1 after intramuscular CTX injection. In kind it is in vivo, mouse. As to conditions: 2 days post intramuscular administration. On the procedure: as §2
Cardiotoxin (CTX) induces skeletal muscle injury and regeneration. To further validate the effect of muscle injury on circulating Dj1, C57BL/6J mice were injected intramuscularly with CTX, and plasma Dj1 levels were measured 2 days post-administration.

The next test deals with cleaved caspase 3. Conditions: C2C12 myocytes. On the procedure: as §1
For a further test, the system named is p42. The experiment in a line: p42 phosphorylation immunoblot in liver of HFD-fed mice. In kind it is in vivo, mouse. An excerpt:
(§4) As described above, Dj1 administration stimulates AMPK phosphorylation in the liver cells. However, elevated AMPK phosphorylation in vivo was not observed (data not shown). Numerous studies have reported that the c-Jun N terminal kinase (JNK) is critical to the development of steatosis and chronic liver injury in NAFLD (22-25). […] However, not all MAPK pathways were activated. For example, phosphorylation of p42 was not altered by tDj1 treatment (FIG. 6O). Both rDj1 and tDj1 suppressed TNFα and Anisomycin-induced JNK (p54 and p46) phosphorylation in human HepG2 and mouse AML12 liver cells, respectively (FIGS. 6C-6D).
On the technique in general: A western blot detects proteins with antibodies after separation by electrophoresis.

The test system of a further test is AML12 cells. Description: TG and NEFA content in palmitate acid-treated AML12 cells. It counts as cell-based, mouse. On the procedure:
Mouse myoblast cells (C2C12) were maintained in high glucose DMEM/high, 10% fetal bovine serum with penicillin/streptomycin. pRK5-Dj1-HA plasmid was purchased from Addgene (#29396). Seeded cells were cultured in 6-well plates for 24 hours prior to transfection. Transfections were performed using Lipofectamine 2000 and PLUS reagent according to manufacturer instructions (Invitrogen, Carlsbad, CA). Human HepG2 cells were cultured in DMEM/low media containing 10% fetal bovine serum with penicillin/streptomycin. Mouse AML12 cells were maintained in DMEM/F12, ITS supplement (Gibco, USA), 40 ng/ml dexamethasone, and 10% fetal bovine serum with penicillin/streptomycin. For in vitro experiments, HepG2 cells were treated with or without recombinant human Dj1 protein (Novus, NBC1-18334) in serum-free media containing 25 mM glucose, 200 μM palmitic acid, and 0.25% bovine serum albumin for an indicated time.
(§5) Dj1 is a highly conserved protein that is ubiquitously expressed in most mammalian tissues. It belongs to the Dj1/ThiJ/PfpI family chaperones, and its expression is induced by oxidative stress (20,21). To determine whether the PfpI domain of Dj1 exerts a similar role as the full-length Dj1 protein (rDj1) in liver cells, truncated Dj1 (tDj1) comprising of only the PfpI domain was purified (FIG. 5O). HFD-fed mice were intravenous injected with rDj1 or tDj1 every other day for 14 days.

The next test has as its system ASK1. Description: ASK1 phosphorylation immunoblot, in vitro and in liver of HFD-fed mice. Also noted: species or system mouse. As to conditions: in vitro and in vivo; liver of HFD-fed WT mice. The source says:
A wide variety of mechanisms activate the JNK pathway. […] Moreover, ASK1 is activated by various stresses, including oxidative stress, ER stress, calcium overload, and receptor-mediated inflammatory signals such as TNFα and lipopolysaccharide (LPS) (26,27). rDj1 administration suppressed both baseline and TNFα-induced ROS levels in HepG2 cells, which may contribute to reducing liver inflammation (FIG. 6F).

Test [1] deals with JNK. The experiment in a line: JNK phosphorylation immunoblot in liver of HFD-fed mice. It counts as in vivo, mouse.
From the text: as §4

Test [2] deals with JNK. The experiment in a line: Anisomycin-induced JNK phosphorylation in AML12 cells. It counts as cell-based. Conditions: mouse AML12 liver cells.
From the text: as §4

A further test has as its system NASH diet-fed mice. Description: tDj1 administration in NASH diet-fed mice.
A further test relates to p38. The experiment in a line: p38 phosphorylation immunoblot in liver of HFD-fed mice. It counts as in vivo, mouse.
From the text: as §4

Another test has as its system HFD-fed mice. The experiment in a line: rDj1 or tDj1 intravenous every other day for 14 days in HFD-fed mice. It counts as in vivo, mouse. On the procedure: C57BL/10cSn-Dmd^mdx/J (001801, mdx) and C57BL/10ScSnJ (000476, WT) mice were ordered directly from The Jackson Laboratory. Different ages of mdx and WT mice were obtained. Animals were weaned 21 days after birth and had free access to food and water and were housed on 12 h light-dark cycle. C57BL/6J males were introduced to a normal diet (NC, Research Diets D15100601) or high-fat diet (HFD, Research Diets D12331), and maintained on a diet for the indicated time. The HFD diet derives 58% of its kilocalories (kcal) from fat (soybean and coconut oil), 25.5% from carbohydrates (sucrose and maltodextrin), and 16.4% from protein (casein). NASH model mice were fed for up to 28 weeks with the NASH diet (Envigo, TD.120528) and 42% fructose (Sigma, F0127) in the water (1,2). The NASH diet is composed of 405.36 g/Kg sucrose and 12.5 g/Kg cholesterol. Recombinant mouse Dj1 protein (Novus, NBP2-59523) or truncated mouse Dj1 (tDj1, GenScript) protein was intravenously injected every day for 5 days or every other day for 2 weeks. Skeletal muscle-specific Park7 knockout mice were generated by crossing Park7 flox mice with Myl1-cre mice (JAX, #024713). Mice were raised in microisolator cages with a 12 h: 12 h light: dark cycle. All procedures were performed in accordance with the Guide for Care and Use of Laboratory Animals of the National Institutes of Health, and were approved by the Animal Subjects Committee of the University of California, Los Angeles.
Cryosections (10-μm thick transverse sections of frozen muscle cut in a cryostat (Leica) at −20° C.) were subjected to hematoxylin & eosin (H&E) staining (10, 54). Liver tissues were fixed in phosphate-buffered 10% formalin and embedded in paraffin wax. Sections were cut and stained with H&E.
as §2
Plasma and liver NEFA, Cholesterol, and Triglyceride were analyzed by their respective kits (FUJIFILM Wako Diagnostics)
About 80 mg of liver samples were homogenized and sonicated in PBS (pH 7.4) for lipid extraction. An internal standard mixture (ISTD) and CHCl3:methanol (2:1) were added to the samples before being vortexed, mixed, sonicated, and centrifuged. The supernatant containing the lipid was removed and dried, the lipids were resuspended in ethanol and then sonicated.
as §5

“Also recorded” adds a separate entry of the source. Read-outs that look alike come from different tables or passages of the source.

Procedure for NASH diet-fed mice: Animals were weaned 21 days after birth and had free access to food and water and were housed on 12 h light-dark cycle. C57BL/6J males were introduced to a normal diet (NC, Research Diets D15100601) or high-fat diet (HFD, Research Diets D12331), and maintained on a diet for the indicated time. […] NASH model mice were fed for up to 28 weeks with the NASH diet (Envigo, TD.120528) and 42% fructose (Sigma, F0127) in the water (1,2). […] Mice were raised in microisolator cages with a 12 h: 12 h light: dark cycle. All procedures were performed in accordance with the Guide for Care and Use of Laboratory Animals of the National Institutes of Health, and were approved by the Animal Subjects Committee of the University of California, Los Angeles.

As to `COC(=O)c1ccccc1NC(=O)c1ccc(F)cc1` [Exo1], the “protein level of Dj1 in the media” value in the test with C2C12 myotubes is given as “significantly reduced”.
For `O=C(/C=C/c1ccc(/C=C/C(=O)Nc2ccc(C3=NCCN3)cc2)cc1)Nc1ccc(C2=NCCN2)cc1` [GW4869], the “protein level of Dj1 in the media” value in the test with C2C12 myotubes was “significantly reduced”.
With `C/C=C(/C)C(=O)O[C@H]1C(C)=C2[C@H]([C@@H]1OC(=O)CCCCCCC)[C@@](C)(OC(C)=O)C[C@H](OC(=O)CCC)[C@@]1(O)[C@H]2OC(=O)[C@@]1(C)O` [Thapsigargin], the “budding of vesicles from cells” value in the test with C2C12 myocytes (Dj1-GFP transfected C2C12 myocytes, time-lapse imaging) is “Robust budding of vesicles”. The “muscle cell release of Dj1” value in the test on C2C12 myotubes was “release Dj1”.
In the case of Cardiotoxin [CTX], in the test with C57BL/6J mice, the “Dj1 in the plasma” value is “increase”.
As to “carbonyl cyanide m-chlorophenyl hydrazine [CCCP]”, in the test with C2C12 myocytes, the “budding of vesicles from cells” value is “Robust budding of vesicles”. Further, in the test with C2C12 myotubes (C2C12 myocytes / myotubes), the “Dj1 levels in the culture medium” value is recorded as “elevated”. For the same molecule, the “HA-Dj1 levels in the media” value in the test with C2C12 myotubes (C2C12 myocytes transfected with HA-tagged Dj1) is “elevated”. Further, in the test with C2C12 myotubes, the “muscle cell release of Dj1” value was “release Dj1”. In addition, the “protein level of cleaved caspase 3” value in the test with cleaved caspase 3 is “did not alter”.

B1: tDj1: truncated mouse Dj1 comprising only the PfpI domain, residues 32-173 per b12, SEQ ID NO: 3 (GenScript) (protein, listed as Mus musculus)
chain: KVTVAGLAGKDPVQCSRDVMICPDTSLEDAKTQGPYDVVVLPGGNLGAQNLSESPMVKEILKEQESRKGLIAAICAGPTALLAHEVGFGCKVTTHPLAKDKMMNGSHYSYSESRVEKDGLILTSRGPGTSFEFALAIVE
For the molecule B1, the “phosphorylation of p42” value in the test on p42 was “not altered”. For the same molecule, in the test with AML12 cells, the TG levels result was “reduced”. Besides, the “phosphorylation of apoptosis signal-regulating kinase 1 (ASK1)” value in the test with ASK1 is “reduced; also recorded: inhibits”. Moreover, the “JNK (p46 subunit) phosphorylation” value in the test with JNK [1] is reported as “significantly reduced”. Further, in the test with JNK [2], the “Anisomycin-induced JNK (p54 and p46) phosphorylation” value is “suppressed; also recorded: inhibits”. In the test on NASH diet-fed mice (NASH diet-fed mice), the “TG levels in the liver” value was “did not considerably reduce”, the fibrosis scores result is “significantly reduced”, the “hepatic apoptosis (TUNEL assay)” value is listed as “suppressed” and the “liver ALT activity” value is reported as “robustly reduced”. Further, the “total cholesterol level in the liver” value in the test on NASH diet-fed mice (NASH diet-fed mice) is “significantly suppressed”. Further, in the test with NASH diet-fed mice (liver of NASH diet-fed mice), the inflammatory gene expression result is recorded as “significantly reduced”; the “liver fibrosis gene expression” value was “significantly reduced”; the “protein levels of apoptosis markers (cleaved caspase 3, cleaved caspase 8, cleaved caspase 9, cleaved PARP)” value is “decreased”. In addition, in the test with NASH diet-fed mice (mice on NASH diet for 28 weeks), the body weight entry is “significantly reduced”, the glucose tolerance entry was “improved” and the insulin tolerance entry is reported as “improved”. For the same molecule, in the test with p38, the p38 phosphorylation entry was “decreased”. In the test with HFD-fed mice, the “level of TG in the liver” value was “significantly reduced”; the “liver histology, lipid accumulation” value is “less lipid accumulation”; the “plasma ALT levels” value is reported as “reducing”; the “plasma AST levels” value is “reducing”.
